Test results as given in the supplement of paper PMC10567573.

B1: SOAT1 (parent)
chain: KSAAMLAVFAVSAVVHEYALAVCL

Variants of: B1
Experiment: protein stability index of a GFP-peptide fusion (GPS, HEK-293T) (PSI 1-6); higher = more stable
Settings: c terminus: a fixed tail appended
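Further: lentivirally expressed fusions sorted by FACS into six bins by GFP to DsRed ratio, PSI derived from sequencing read proportions per bin multiplied by bin number.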

In order of falling protein stability index:
1. KSAAMLAVFAVSAVVHEYALAVPL [C23P]  5.3
2. KSAARLAVFAVSAVVHEYALAVCL [M5R]  4.56
3. KSAAMLAVFAVSAVVHEYALSVCL [A21S]  4.49
4. KSAAMLAVDAVSAVVHEYALAVCL [F9D]  4.42
5. KSAAMLAVFAVSAVVHEYALAICL [V22I]  4.34
6. KSAAMLAFFAVSAVVHEYALAVCL [V8F]  4.29
7. KSAASLAVFAVSAVVHEYALAVCL [M5S]  4.27
8. KSAAMLGVFAVSAVVHEYALAVCL [A7G]  4.09
9. KSAAMLAVFAVSAVVHEYALARCL [V22R]  4.03
10. KSAAMLAVFAVSAWVHEYALAVCL [V14W]  4
11. KSAAMLRVFAVSAVVHEYALAVCL [A7R]  3.98
12. KSAAMLANFAVSAVVHEYALAVCL [V8N]  3.98
13. KSAAMLAVFAVSAVVHEYALAVKL [C23K]  3.89
14. KSAAMLAVFAVSAVVHEYLLAVCL [A19L]  3.87
15. KSAAMLAVFAVSAVVHEYALMVCL [A21M]  3.82
16. KSAAMLAVFHVSAVVHEYALAVCL [A10H]  3.74
17. KSAAMLAVFGVSAVVHEYALAVCL [A10G]  3.62
18. KSAAMLAVFPVSAVVHEYALAVCL [A10P]  3.61
19. KSAAQLAVFAVSAVVHEYALAVCL [M5Q]  3.61
20. KSAAMLAVFAVSALVHEYALAVCL [V14L]  3.6
21. KSAAPLAVFAVSAVVHEYALAVCL [M5P]  3.6
22. KSAATLAVFAVSAVVHEYALAVCL [M5T]  3.55
23. KSAAMLYVFAVSAVVHEYALAVCL [A7Y]  3.49
24. KSAAMLAVFAVSAVVHEYALAVSL [C23S]  3.48
25. KSAAMLAVFAVSAVVHEYRLAVCL [A19R]  3.46
26. KSAAMLAVQAVSAVVHEYALAVCL [F9Q]  3.43
27. KSAAMLAVFAVSAVVHEYALEVCL [A21E]  3.42
28. KSAAMLAVFAVSADVHEYALAVCL [V14D]  3.41
29. KSAAMLAYFAVSAVVHEYALAVCL [V8Y]  3.31
30. KSAAMLAPFAVSAVVHEYALAVCL [V8P]  3.28
31. KSAAMLASFAVSAVVHEYALAVCL [V8S]  3.28
32. KSAAMLTVFAVSAVVHEYALAVCL [A7T]  3.23
33. KSAAMLAVFAVSAVVHEYALAVDL [C23D]  3.23
34. KSAAMLAVFQVSAVVHEYALAVCL [A10Q]  3.2
35. KSAAMLAHFAVSAVVHEYALAVCL [V8H]  3.18
36. KSAAMLAVFAVSAVVHEYALDVCL [A21D]  3.15
37. KSAAMLAVFAVSAVHHEYALAVCL [V15H]  3.15
38. KSAAMLLVFAVSAVVHEYALAVCL [A7L]  3.14
39. KSAAMLAVFAVSAVVHEYALAVIL [C23I]  3.12
40. KSAAMLAVHAVSAVVHEYALAVCL [F9H]  3.12
41. KSAAMLAVFSVSAVVHEYALAVCL [A10S]  3.12
42. KSAAMLAVFAVSAVVHEYALNVCL [A21N]  3.11
43. KSAAMLATFAVSAVVHEYALAVCL [V8T]  3.11
44. KSAAMLAVFAVSAVVHEYALATCL [V22T]  3.08
45. KSAAMLAVFAVSAVVHEYALAACL [V22A]  3.06
46. KSAAMLAVFAVSAVVHEYALACCL [V22C]  3.03
47. KSAAMLAVFVVSAVVHEYALAVCL [A10V]  3.03
48. KSAAMLAVWAVSAVVHEYALAVCL [F9W]  3.01
49. KSAAMLAVFAVSAVVHEYALFVCL [A21F]  3.01
50. KSAAMLAWFAVSAVVHEYALAVCL [V8W]  3.01
51. KSAAMLAVFAVSAVVHEYALLVCL [A21L]  3
52. KSAAMLDVFAVSAVVHEYALAVCL [A7D]  2.99
53. KSAAMLAVFAVSAVVLEYALAVCL [H16L]  2.94
54. KSAAMLHVFAVSAVVHEYALAVCL [A7H]  2.91
55. KSAAMLAVFAVSAHVHEYALAVCL [V14H]  2.91
56. KSAAMLAAFAVSAVVHEYALAVCL [V8A]  2.89
57. KSAAMLAVFAVSAVVHEYHLAVCL [A19H]  2.88
58. KSAAMLAVFAVSAVVHEYALAHCL [V22H]  2.82
59. KSAAMLADFAVSAVVHEYALAVCL [V8D]  2.77
60. KSAAMLAVFAVSAVVSEYALAVCL [H16S]  2.73
61. KSAAMLWVFAVSAVVHEYALAVCL [A7W]  2.69
62. KSAAMLAVFAVSAVGHEYALAVCL [V15G]  2.69
63. KSAAMLQVFAVSAVVHEYALAVCL [A7Q]  2.59
64. KSAAMLAVFAVSAVVDEYALAVCL [H16D]  2.58
65. KSAAMLPVFAVSAVVHEYALAVCL [A7P]  2.58
66. KSAAMLAVFAVSAVVHEYYLAVCL [A19Y]  2.56
67. KSAAWLAVFAVSAVVHEYALAVCL [M5W]  2.56
68. KSAAMLAVFAVSAVVPEYALAVCL [H16P]  2.51
69. KSAAMLAVFAVSAVVHEYMLAVCL [A19M]  2.47
70. KSAAMLAVFAVSAVVHEYQLAVCL [A19Q]  2.44
71. KSAAMLACFAVSAVVHEYALAVCL [V8C]  2.43
72. KSAAMLAVFAVSAVVHEYKLAVCL [A19K]  2.39
73. KSAAMLAVMAVSAVVHEYALAVCL [F9M]  2.35
74. KSAAMLAVFAVSAVVHEYALAVVL [C23V]  2.34
75. KSAAMLAVFAVSAVVHEYALAVQL [C23Q]  2.32
76. KSAAMLAKFAVSAVVHEYALAVCL [V8K]  2.31
77. KSAAMLAVSAVSAVVHEYALAVCL [F9S]  2.3
78. KSAAMLAVRAVSAVVHEYALAVCL [F9R]  2.15
79. KSAAMLVVFAVSAVVHEYALAVCL [A7V]  2.07
80. KSAAMLAVFAVSAVQHEYALAVCL [V15Q]  2.06
81. KSAAMLAVFEVSAVVHEYALAVCL [A10E]  2.05
82. KSAAMLAVFAVSAVVHEYALAVHL [C23H]  2.03
83. KSAAMLAVFAVSANVHEYALAVCL [V14N]  2
84. KSAAMLAVPAVSAVVHEYALAVCL [F9P]  1.92
85. KSAAMLAVFAVSAFVHEYALAVCL [V14F]  1.91
86. KSAAMLAVFTVSAVVHEYALAVCL [A10T]  1.83
87. KSAAMLAVFAVSAVRHEYALAVCL [V15R]  1.83
88. KSAAMLAVAAVSAVVHEYALAVCL [F9A]  1.73
89. KSAAMLAIFAVSAVVHEYALAVCL [V8I]  1.62
90. KSAAMLAVFAVSAVVHEYALIVCL [A21I]  1.6
91. KSAAMLMVFAVSAVVHEYALAVCL [A7M]  1.54
92. KSAAMLIVFAVSAVVHEYALAVCL [A7I]  1.49
93. KSAAMLAVVAVSAVVHEYALAVCL [F9V]  1.47
94. KSAAMLAVFAVSAVVHEYALAVAL [C23A]  1.18
